# Patent US10767162B2, “Methods for differentiation” (PRESIDENT AND FELLOWS OF HARVARD COLLEGE, priority 2014, dated 2020)
# Columns and labels:
# [1] = system: iNIL ES cells (Ngn2, Isl1, Lhx3); assay: Spinal motor neuron differentiation of iNIL ES cells, beta-3 tubulin (Tubb3) expression; type: cell-based, mouse; conditions: added back into growth factor-free media
# Description: FIGS. 11A-11B depict spinal motor neurons. […] FIG. 11B depicts a time course of gene expression for neuronal lineage factors and motor neuron terminal differentiation markers in growth factor-free (N2B27) media.
# To generate spinal motor neurons, a mouse ES cell line that overexpressed a combination of three transcription factor lineage specifiers (Ngn2, Isl1, Lhx3) was used. This combination was previously shown to specify spinal motor neuron identity (4). These iNIL cells, as they are also called, upon doxycycline stimulation express the three transcription factors from a single open reading frame coupled by 2A peptides. Growth factor withdrawal was used as the method of cell cycle manipulation in the experiments described in this Example.
# As expected from the results on skeletal muscle myotubes, neurons rapidly formed from ES cells upon switching to different types of growth factor-free media. […] Tubb3 expression was confirmed by immunostaining. When either of the ES cell growth factors LIF or Bmp4 were added back into growth factor-free media, there was a strong block on neuronal differentiation.
# ESC differentiation. Twenty-four hours before starting, ESCs are trypsinized and spread out as monolayer onto gelatin in standard ES media. […]
# (§1) RNA isolation and qPCR. […] Quantitative PCR was performed using Bio-rad's SYBR™ green Supermix. […]
# [2] = system: ES cell line that constitutively over-expressed the transcription factor MyoD; assay: Skeletal muscle differentiation efficiency of MyoD ES cells, myosin heavy chain (MHC) immunostaining; type: cell-based, mouse
# Description: FIG. 2A depicts a differentiation time course of ES cells to skeletal muscle when exposed to low serum vs high serum conditions. […] LIF was removed at Day 0. Low serum was then initiated at different starting times beginning with Day 0. Cells were then fixed and immunostained for myosin heavy chain (MHC) expression. Differentiating cells in high serum were continuously split to prevent overgrowth. FIG. 2B depicts a comparison of differentiation efficiency generated by two types of defined media (N2B27) and 20% KOSR, low serum media (2% horse serum+insulin), and high serum media (15% FBS). Cells were removed from standard ES media (LIF and serum) and incubated in the specified media starting from Day 0 to Day 4. Continuation of LIF (1000 U/ml) or addition of Bmp4 (10 ng/ml) results in a strong block to muscle differentiation.
# To probe the effect of the cell cycle on differentiation an ES cell line was used that constitutively over-expressed the transcription factor MyoD driven off an EF1alpha promoter (5) activated by tamoxifen-induced Cre recombination. […]
# However any implication of growth factor effects through the manipulation of serum can be fraught with the inconsistencies and complexities of serum. […] Use of both media in ES cells led to activation of MyoD and terminal myogenesis similar to the 2% low serum media, with some improvement (FIG. 2B; assessed on Day 4). […]
# [3] = system: Hnf4α-overexpressing ES cells; assay: Hepatoblast-like differentiation of Hnf4α-overexpressing ES cells, alphafetoprotein (AFP) expression; type: cell-based; conditions: added to growth factor-free media; day 4
# Description: FIGS. 13A-13B depict hepatoblast-like cells. […] Alpha-fetoprotein mRNA expression after 4 days in media of different growth factor content. FIG. 13B depicts a time course of gene expression for hepatic lineage factors and hepatocyte markers in growth factor-free (N2B27) media.
# One essential lineage specifying factor for hepatocytes is hepatic nuclear factor 4α (Hnf4α)(6). Switching of Hnf4α-overexpressing ES cells to growth factor-free or growth factor-reduced media led to the activation of a subset of hepatic genes. At day 0, LIF and doxycycline were removed and the media was either switched or kept to 15% FBS. By day 4, there were high levels of alphafetoprotein (AFP) that could be detected in the cells differentiated in the growth factor-free or growth factor-reduced media and less than 10% the level of AFP in cells in 15% FBS (FIG. 13A and FIG. 16). AFP expression could be confirmed by immunostaining. While this activation by growth factor withdrawal was similar to the pattern seen in previous cell types, there was an additional interesting point of variation compared to other lineages examined so far. […] Albumin production was also detected, as was Sox17, Pparα, Cdh3, Tbx3, Krt18, Hhex, Lrh1, C/EBPα, Hnf1a, and Hnf1b. […]
# as §1
molecule,measurement,setting,value
"Bmp4: ES cell growth factor, promotes Id protein family expression (protein, UniProt P21275 293-408, looked up) Bone morphogenetic protein 4: SPKHHPQRSRKKNKNCRRHSLYVDFSDVGWNDWIVAPPGYQAFYCHGDCPFPLADHLNSTNHAIVQTLVNSVNSSIPKACCVPTELSAISMLYLDEYDKVVLKNYQEMVVEGCGCR",neuronal differentiation,[1],strong block
same,MHC+ nuclei (differentiation) when added back to N2B27,"[2]; LIF 1000 U/ml or Bmp4 10 ng/ml added back to N2B27, Day 4",0%
same,muscle differentiation,"[2]; continuation of LIF (1000 U/ml) or addition of Bmp4 (10 ng/ml), Day 0 to Day 4",strong block
same,AFP expression,[3],did not reduce
